# Test results from FireProtDB (doi:10.1016/j.bpc.2006.10.013).
# B1: Rubredoxin wild type, P00268 (protein)
# chain: MKKYTCTVCGYIYNPEDGDPDNGVNPGTDFKDIPDDWVCPLCGVGKDQFEEVEE
# Details: Clostridium pasteurianum; pH 9.08; Thermal; NMR; Sodium borate 100 mM; reversible: Yes; whole UniProt chain shown
protein,measurement,value
B1,Tm,107 °C
same,heat capacity change of unfolding,0.5 kcal/mol/K
same,unfolding enthalpy (van 't Hoff),62 kcal/mol
